Measurements from US20220316002.

Biological target: thiolated streptavidin (ProteinMods) (UniProt P22629)
Chain of UniProt P22629 (P22629 whole entry, looked up): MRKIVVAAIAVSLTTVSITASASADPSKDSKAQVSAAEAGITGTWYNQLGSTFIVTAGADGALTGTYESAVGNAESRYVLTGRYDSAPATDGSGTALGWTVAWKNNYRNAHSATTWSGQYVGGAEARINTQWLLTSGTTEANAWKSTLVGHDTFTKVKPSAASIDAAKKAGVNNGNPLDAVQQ

Gen II Φ29 DNA polymerase (D12A/D66A, biotinylated Avitag at the N terminus and second Avitag between E279 and D280)
highest peak of the single-molecule conductance distribution (STM, 4.5 nm gap): The 3 nS peak observed in FIG. 14B is now absent
